How the values were obtained:
[1] = target: T1, YTHDF3-His (UniProt Q7Z739 1-585); assay: native gel or EMSA; recombinant ALKBH1 and increasing recombinant YTHDF3 with biotin-labeled 6mA-dsDNA oligos, 30 °C 20 min, 2% glutaraldehyde on ice 15 min, 5% nondenaturing gel; conditions: both partners purified
T1 construct: YTHDF3 inserted into pET 26b vector; pET26b would give a C-terminal His tag (surmise); also called recombinant YTHDF3; wild-type YTHDF3; source: E. coli BL21 (DE3), purified (His-tag protein purification kit); also coexpressed with ALKBH1 in E. coli, in lysate
T1 sequence (looked up): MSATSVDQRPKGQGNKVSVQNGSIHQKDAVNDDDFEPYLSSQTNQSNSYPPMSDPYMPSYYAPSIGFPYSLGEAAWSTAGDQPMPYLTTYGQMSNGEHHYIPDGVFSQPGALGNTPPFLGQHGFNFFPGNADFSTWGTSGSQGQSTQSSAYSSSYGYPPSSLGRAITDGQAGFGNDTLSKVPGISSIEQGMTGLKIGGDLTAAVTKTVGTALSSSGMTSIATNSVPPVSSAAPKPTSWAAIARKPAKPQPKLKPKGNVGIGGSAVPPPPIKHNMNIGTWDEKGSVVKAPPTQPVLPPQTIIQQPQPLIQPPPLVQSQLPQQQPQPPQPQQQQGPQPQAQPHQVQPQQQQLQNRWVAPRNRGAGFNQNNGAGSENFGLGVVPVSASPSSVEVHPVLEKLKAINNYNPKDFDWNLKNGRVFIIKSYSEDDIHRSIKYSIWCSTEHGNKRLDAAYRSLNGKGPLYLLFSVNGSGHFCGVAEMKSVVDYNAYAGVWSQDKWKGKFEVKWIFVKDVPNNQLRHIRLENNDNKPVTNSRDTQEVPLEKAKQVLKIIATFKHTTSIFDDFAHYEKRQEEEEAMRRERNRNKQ

[2] = target: T2, YTHDF3-His MT6mA (W438R/W492R) (UniProt Q7Z739 1-585, W438R | W492R); assay: pull-down; GST pull-down: recombinant YTHDF3-His proteins incubated with recombinant ALKBH1-GST protein beads at 4 °C for 1 h, washed three times, eluted with reduced L-glutathione, western blot; conditions: both partners purified
T2 construct: YTHDF3 with W438R/W492R in the YTH domain, in pET 26b vector; also called YTHDF3-MT6mA-His; YTHDF3 W438R/W492R mutant; source: E. coli BL21 (DE3), purified (His-tag protein purification kit)
T2 sequence (looked up): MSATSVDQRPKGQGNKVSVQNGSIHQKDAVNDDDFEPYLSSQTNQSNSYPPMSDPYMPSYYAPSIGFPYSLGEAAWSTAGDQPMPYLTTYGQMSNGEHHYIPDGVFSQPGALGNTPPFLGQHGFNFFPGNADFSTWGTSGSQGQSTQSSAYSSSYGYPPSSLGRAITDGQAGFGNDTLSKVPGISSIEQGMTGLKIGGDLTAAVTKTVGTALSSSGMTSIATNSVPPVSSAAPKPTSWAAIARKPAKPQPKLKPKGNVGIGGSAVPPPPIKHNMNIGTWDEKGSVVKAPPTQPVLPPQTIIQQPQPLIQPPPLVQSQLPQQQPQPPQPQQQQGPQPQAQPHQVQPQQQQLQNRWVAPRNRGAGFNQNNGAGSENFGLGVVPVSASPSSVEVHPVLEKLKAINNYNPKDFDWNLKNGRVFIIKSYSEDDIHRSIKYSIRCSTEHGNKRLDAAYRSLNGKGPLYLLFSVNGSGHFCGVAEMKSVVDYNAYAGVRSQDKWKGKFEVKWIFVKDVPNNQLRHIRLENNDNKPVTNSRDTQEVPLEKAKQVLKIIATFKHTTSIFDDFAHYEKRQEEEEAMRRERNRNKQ

[3] = target: T3, YTHDF3 wild type (UniProt Q7Z739 1-585); assay: EMSA, pull-down; SPR: 1x HBS-EP+, biotin-DNA on SA chip (~500 RU), 30 ul/min; EMSA: LightShift kit, 30 C 20 min, then 2% glutaraldehyde on ice 15 min, 5% native gel; pull-down:; conditions: protein: recombinant, tags: His
T3 sequence: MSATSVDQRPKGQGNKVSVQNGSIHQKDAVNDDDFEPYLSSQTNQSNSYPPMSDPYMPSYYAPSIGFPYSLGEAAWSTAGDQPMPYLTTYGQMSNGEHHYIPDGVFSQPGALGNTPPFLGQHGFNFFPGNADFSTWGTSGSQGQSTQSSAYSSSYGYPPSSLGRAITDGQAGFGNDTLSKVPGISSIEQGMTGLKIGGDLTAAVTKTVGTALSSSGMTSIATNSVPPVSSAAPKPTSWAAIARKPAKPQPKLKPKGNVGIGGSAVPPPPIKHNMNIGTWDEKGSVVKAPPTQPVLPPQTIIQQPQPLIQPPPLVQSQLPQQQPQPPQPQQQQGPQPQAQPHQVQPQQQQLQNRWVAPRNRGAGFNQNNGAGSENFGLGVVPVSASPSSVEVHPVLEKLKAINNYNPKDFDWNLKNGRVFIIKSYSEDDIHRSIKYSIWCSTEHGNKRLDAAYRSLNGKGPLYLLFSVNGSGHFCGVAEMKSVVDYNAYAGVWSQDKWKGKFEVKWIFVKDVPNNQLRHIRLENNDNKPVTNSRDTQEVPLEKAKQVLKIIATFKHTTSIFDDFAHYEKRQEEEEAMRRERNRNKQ

[4] = target: T4, ALKBH1;YTHDF3 wild type (Homo sapiens?;Homo sapiens?, UniProt Q13686;Q7Z739 1-389;1-585, |); assay: pull-down; YTHDF3 increases ALKBH1 binding; SPR: 1x HBS-EP+, biotin-DNA on SA chip (~500 RU), 30 ul/min; EMSA: LightShift kit, 30 C 20 min, then 2% glutaraldehyde on ice 15 min, 5% native gel; pull-down:; conditions: protein: recombinant;recombinant
T4 sequence 1: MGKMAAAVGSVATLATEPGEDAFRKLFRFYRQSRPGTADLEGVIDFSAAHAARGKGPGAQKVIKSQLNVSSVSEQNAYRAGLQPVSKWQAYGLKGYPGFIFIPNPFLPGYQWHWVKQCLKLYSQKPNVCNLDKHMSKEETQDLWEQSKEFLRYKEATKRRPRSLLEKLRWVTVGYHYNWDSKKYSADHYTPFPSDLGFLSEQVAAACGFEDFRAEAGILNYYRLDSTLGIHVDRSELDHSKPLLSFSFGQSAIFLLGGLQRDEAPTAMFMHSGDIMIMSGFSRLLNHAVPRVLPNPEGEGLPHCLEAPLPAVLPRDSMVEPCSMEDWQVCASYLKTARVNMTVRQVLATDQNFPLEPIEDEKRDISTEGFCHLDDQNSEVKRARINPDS
T4 sequence 2: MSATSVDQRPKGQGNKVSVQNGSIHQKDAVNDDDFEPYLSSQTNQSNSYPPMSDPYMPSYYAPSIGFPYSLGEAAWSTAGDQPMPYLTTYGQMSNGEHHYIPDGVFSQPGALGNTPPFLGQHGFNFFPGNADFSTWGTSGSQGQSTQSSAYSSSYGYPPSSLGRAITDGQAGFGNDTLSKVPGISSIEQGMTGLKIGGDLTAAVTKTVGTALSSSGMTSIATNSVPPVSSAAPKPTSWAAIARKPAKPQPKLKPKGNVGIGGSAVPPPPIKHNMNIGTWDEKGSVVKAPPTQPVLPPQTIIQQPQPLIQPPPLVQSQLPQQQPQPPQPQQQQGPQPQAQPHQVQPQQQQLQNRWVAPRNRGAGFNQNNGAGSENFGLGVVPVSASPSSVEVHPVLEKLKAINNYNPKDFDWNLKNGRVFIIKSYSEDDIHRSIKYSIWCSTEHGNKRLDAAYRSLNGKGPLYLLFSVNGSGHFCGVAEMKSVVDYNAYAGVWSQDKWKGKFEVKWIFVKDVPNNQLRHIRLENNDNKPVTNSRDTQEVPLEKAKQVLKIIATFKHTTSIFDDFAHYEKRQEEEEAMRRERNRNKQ

[5] = target: T3, YTHDF3 wild type; assay: EMSA; SPR: 1x HBS-EP+, biotin-DNA on SA chip (~500 RU), 30 ul/min; EMSA: LightShift kit, 30 C 20 min, then 2% glutaraldehyde on ice 15 min, 5% native gel; pull-down:; conditions: protein: recombinant, tags: His
[6] = label: 3' biotin strand 1, duplex with bulge of unpaired nt in strand 1 around 6mA
[7] = label: 3' biotin strand 1, duplex with internal mismatch bubble around 6mA

B1: ALKBH1-GST (enzyme, UniProt Q13686 1-389, looked up)
chain: MGKMAAAVGSVATLATEPGEDAFRKLFRFYRQSRPGTADLEGVIDFSAAHAARGKGPGAQKVIKSQLNVSSVSEQNAYRAGLQPVSKWQAYGLKGYPGFIFIPNPFLPGYQWHWVKQCLKLYSQKPNVCNLDKHMSKEETQDLWEQSKEFLRYKEATKRRPRSLLEKLRWVTVGYHYNWDSKKYSADHYTPFPSDLGFLSEQVAAACGFEDFRAEAGILNYYRLDSTLGIHVDRSELDHSKPLLSFSFGQSAIFLLGGLQRDEAPTAMFMHSGDIMIMSGFSRLLNHAVPRVLPNPEGEGLPHCLEAPLPAVLPRDSMVEPCSMEDWQVCASYLKTARVNMTVRQVLATDQNFPLEPIEDEKRDISTEGFCHLDDQNSEVKRARINPDS
notes: ALKBH1 inserted into pGEX vector; it would add GST at the N-terminus (surmise). 'Recombinant ALKBH1' of EMSA, DNA pull-down and demethylase assays may be this protein or ALKBH1-His; also called recombinant ALKBH1; A1; source: E. coli BL21 (DE3), purified (glutathione Sepharose; on beads or eluted with reduced L-glutathione)
Question: Does B1 bind [1]?
Answer: Result: binds

Question: Does B1 bind [2]?
Answer: Result: binds

B2: Bulge-6mA (mixed)
DNA 1: AACTTCGTGCAGGCATGGGATCTTGTCTACT
DNA 2: AGTAGACACATGCCTGCACGAAGTT
modifications: N6-methyl-dA at A20 of strand 1
Question: Which results are given for B2?
Answer: binding result [3, 6]: binds; binding result [4, 6]: binds

B3: Bubble-6mA (mixed)
DNA 1: AACTTCGTGCAGGCATGGGATCTTGTCTACT
DNA 2: AGTAGACAGTCGATCATGCCTGCACGAAGTT
modifications: N6-methyl-dA at A20 of strand 1
Question: What does the source list for B3?
Answer: binding result [3, 7]: binds; binding result [4, 7]: binds

Question: Which results are given for AACTTCGTGCAGGCATGGGATCTTGTCTACT (ssDNA, N6-methyl-dA at A20) [ss-6mA]?
Answer: binding result ([3]; label: 3' biotin): binds; binding result ([4]; label: 3' biotin): binds

Question: Does CCCGGUUCGAUUCCCGG (ssRNA, N1-methyladenosine at A10) [tRNA-m1A-oligo] bind ([5]; label: 3' biotin)?
Answer: Result: no binding

Question: Does CGUCUCGGACUCGGACUGCU (ssRNA, N6-methyladenosine at A9) [ss-m6A-oligo] bind ([5]; label: 5' biotin)?
Answer: Result: binds

Reference: publication PMC12402098, “YTHDF3 recognizes DNA N6-methyladenine and recruits ALKBH1 for 6mA removal from genomic DNA” (The EMBO Journal, 2025)
